Source: US12365732

Experiments:
[1] = molecular target: hu-CD96 isoform 2 on CHO cells (human) (UniProt P40200); assay: FACS, Ab 2 nM
[2] = molecular target: hu-CD96 isoform 2 on CHO cells (human) (UniProt P40200); assay: FACS, Ab 10 nM
[3] = molecular target: hu-CD96 isoform 2 on CHO cells (human) (UniProt P40200); assay: FACS, Ab 50 nM
[4] = molecular target: cynomolgus monkey CD96 on cynomolgus monkey PBMCs (cynomolgus monkey); assay: FACS, Ab 16 nM
[5] = molecular target: human CD96 on primary human immune cells (PBMCs, NK cells, CD4+ T cells) (human) (UniProt P40200); assay: FACS, Ab 16 nM
[6] = molecular target: cynomolgus monkey CD96 on cynomolgus monkey PBMCs (cynomolgus monkey); assay: FACS, Ab 80 nM
[7] = molecular target: human CD96 on primary human immune cells (PBMCs, NK cells, CD4+ T cells) (human) (UniProt P40200); assay: FACS, Ab 80 nM
[8] = molecular target: hu-CD96 isoform 2 on CHO cells (human) (UniProt P40200); assay: FACS, Ab 0.4 nM
[9] = molecular target: cynomolgus monkey CD96 on cynomolgus monkey PBMCs (cynomolgus monkey); assay: FACS, Ab 3.2 nM
[10] = molecular target: human CD96 on primary human immune cells (PBMCs, NK cells, CD4+ T cells) (human) (UniProt P40200); assay: FACS, Ab 3.2 nM
[11] = molecular target: hu-CD96 isoform 2 on CHO cells (human) (UniProt P40200); assay: FACS, Ab 0.08 nM
[12] = molecular target: cynomolgus monkey CD96 on cynomolgus monkey PBMCs (cynomolgus monkey); assay: FACS, Ab 0.64 nM
[13] = molecular target: human CD96 on primary human immune cells (PBMCs, NK cells, CD4+ T cells) (human) (UniProt P40200); assay: FACS, Ab 0.64 nM
[14] = molecular target: hu-CD96 isoform 2 on CHO cells (human) (UniProt P40200); assay: FACS, Ab 0.016 nM
[15] = molecular target: cynomolgus monkey CD96 on cynomolgus monkey PBMCs (cynomolgus monkey); assay: FACS, Ab 0.128 nM
[16] = molecular target: human CD96 on primary human immune cells (PBMCs, NK cells, CD4+ T cells) (human) (UniProt P40200); assay: FACS, Ab 0.128 nM
[17] = molecular target: hu-CD96 isoform 2 on CHO cells (human) (UniProt P40200); assay: FACS, Ab 0.0032 nM
[18] = molecular target: cynomolgus monkey CD96 on cynomolgus monkey PBMCs (cynomolgus monkey); assay: FACS, Ab 0.0256 nM
[19] = molecular target: human CD96 on primary human immune cells (PBMCs, NK cells, CD4+ T cells) (human) (UniProt P40200); assay: FACS, Ab 0.0256 nM
[20] = molecular target: cynomolgus monkey CD96 on cynomolgus monkey PBMCs (cynomolgus monkey); assay: FACS, Ab 0.00512 nM
[21] = molecular target: human CD96 on primary human immune cells (PBMCs, NK cells, CD4+ T cells) (human) (UniProt P40200); assay: FACS, Ab 0.00512 nM
[22] = molecular target: cynomolgus monkey CD96 on cynomolgus monkey PBMCs (cynomolgus monkey); assay: FACS, % positive curve
[23] = molecular target: hu-CD96 isoform 2 on CHO cells (human) (UniProt P40200); assay: FACS, % positive curve
[24] = molecular target: human CD96 on primary human immune cells (PBMCs, NK cells, CD4+ T cells) (human) (UniProt P40200); assay: FACS, % positive curve
[25] = molecular target: human CD96 on primary human immune cells (PBMCs, NK cells, CD4+ T cells) (human) (UniProt P40200); assay: cell-based or functional assay
[26] = molecular target: hu-CD96D1 D3-hFc (human); assay: ELISA, coated CD96D1D3-hFc
[27] = molecular target: hu-CD96 isoform 2 on CHO cells (human) (UniProt P40200); assay: FACS, CD155-Fc-FLAG 10 nM, Ab 4 nM
[28] = molecular target: hu-CD96 (soluble, isoform 2 extracellular domain) (human) (UniProt P40200); assay: SPR 25C, IgG captured, CD96 analyte
[29] = molecular target: hu-CD96 isoform 2 on CHO cells (human) (UniProt P40200); assay: FACS, CD155-Fc-FLAG 10 nM, Ab 20 nM
[30] = molecular target: hu-CD96 isoform 2 on CHO cells (human) (UniProt P40200); assay: FACS, CD155-Fc-FLAG 10 nM, Ab 0.8 nM
[31] = molecular target: hu-CD96 isoform 2 on CHO cells (human) (UniProt P40200); assay: FACS, CD155-Fc-FLAG 10 nM, Ab 100 nM
[32] = molecular target: hu-CD96 isoform 2 on CHO cells (human) (UniProt P40200); assay: FACS, CD155-Fc-FLAG 10 nM, Ab 0.16 nM
[33] = molecular target: hu-CD96 isoform 2 on CHO cells (human) (UniProt P40200); assay: FACS, CD155-Fc-FLAG 10 nM, Ab 0.032 nM
[34] = molecular target: hu-CD96 isoform 2 on CHO cells (human) (UniProt P40200); assay: FACS, CD155-Fc-FLAG 10 nM, Ab 0.0064 nM
[35] = molecular target: hu-CD96 Fc (human); assay: SPR 37C, biotin-CD96-Fc captured, IgG analyte
[36] = molecular target: hu-CD96 isoform 2 on CHO cells (human) (UniProt P40200); assay: FACS, blocks 10 nM CD155-Fc-FLAG binding to CD96-CHO
[37] = molecular target: recombinant hu-CD96 (M1-M503-polyHis) (human) (UniProt P40200); assay: ELISA, blocks hu-CD96-his binding to coated CD155-hFc
[38] = molecular target: cy-CD226 His tag (cynomolgus monkey); assay: SPR 25C, biotin-CD226-His captured, IgG analyte
[39] = molecular target: hu-CD226 His tag (human) (UniProt Q15762); assay: SPR 25C, biotin-CD226-His captured, IgG analyte
[40] = molecular target: hu-CD96 isoform 1 on HEK293T cells (human) (UniProt P40200); assay: FACS, Ab 2 nM
[41] = molecular target: hu-CD96 isoform 1 on HEK293T cells (human) (UniProt P40200); assay: FACS, Ab 10 nM
[42] = molecular target: hu-CD96 isoform 1 on HEK293T cells (human) (UniProt P40200); assay: FACS, Ab 50 nM
[43] = molecular target: hu-CD96 isoform 1 on HEK293T cells (human) (UniProt P40200); assay: FACS, Ab 0.4 nM
[44] = molecular target: hu-CD96 isoform 1 on HEK293T cells (human) (UniProt P40200); assay: FACS, Ab 0.08 nM
[45] = molecular target: hu-CD96 isoform 1 on HEK293T cells (human) (UniProt P40200); assay: FACS, Ab 0.016 nM

Chain of hu-CD96 Fc (human) (chain, as listed by the source): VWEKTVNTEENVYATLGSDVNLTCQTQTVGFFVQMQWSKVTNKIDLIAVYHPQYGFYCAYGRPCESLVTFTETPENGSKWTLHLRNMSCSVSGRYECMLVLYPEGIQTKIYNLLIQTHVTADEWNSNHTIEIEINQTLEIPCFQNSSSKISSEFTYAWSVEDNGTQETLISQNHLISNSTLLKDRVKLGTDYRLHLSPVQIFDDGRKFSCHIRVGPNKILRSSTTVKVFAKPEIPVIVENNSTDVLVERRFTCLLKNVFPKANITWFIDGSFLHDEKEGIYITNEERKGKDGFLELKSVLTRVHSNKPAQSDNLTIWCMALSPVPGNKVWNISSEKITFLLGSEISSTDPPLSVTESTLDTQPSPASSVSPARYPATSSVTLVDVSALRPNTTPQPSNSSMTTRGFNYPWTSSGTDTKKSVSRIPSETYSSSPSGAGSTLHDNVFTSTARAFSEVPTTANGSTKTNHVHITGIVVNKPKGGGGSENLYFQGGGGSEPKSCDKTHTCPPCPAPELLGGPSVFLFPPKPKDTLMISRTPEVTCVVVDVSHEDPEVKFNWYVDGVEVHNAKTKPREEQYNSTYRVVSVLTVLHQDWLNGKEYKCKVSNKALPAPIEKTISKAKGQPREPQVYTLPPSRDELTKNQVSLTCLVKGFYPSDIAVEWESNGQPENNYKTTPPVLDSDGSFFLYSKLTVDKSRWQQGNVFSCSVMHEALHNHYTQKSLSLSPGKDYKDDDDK
Chain of hu-CD226 His tag (human) (Q15762 19-247 limits assumed): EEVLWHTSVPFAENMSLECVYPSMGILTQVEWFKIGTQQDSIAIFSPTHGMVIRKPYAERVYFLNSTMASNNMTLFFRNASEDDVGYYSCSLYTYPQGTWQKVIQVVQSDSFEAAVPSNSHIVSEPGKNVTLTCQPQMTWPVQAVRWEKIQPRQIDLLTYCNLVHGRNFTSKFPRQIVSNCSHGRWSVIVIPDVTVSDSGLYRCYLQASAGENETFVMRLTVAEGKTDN
Chain of hu-CD96D1 D3-hFc (human) (chain, as listed by the source limits assumed): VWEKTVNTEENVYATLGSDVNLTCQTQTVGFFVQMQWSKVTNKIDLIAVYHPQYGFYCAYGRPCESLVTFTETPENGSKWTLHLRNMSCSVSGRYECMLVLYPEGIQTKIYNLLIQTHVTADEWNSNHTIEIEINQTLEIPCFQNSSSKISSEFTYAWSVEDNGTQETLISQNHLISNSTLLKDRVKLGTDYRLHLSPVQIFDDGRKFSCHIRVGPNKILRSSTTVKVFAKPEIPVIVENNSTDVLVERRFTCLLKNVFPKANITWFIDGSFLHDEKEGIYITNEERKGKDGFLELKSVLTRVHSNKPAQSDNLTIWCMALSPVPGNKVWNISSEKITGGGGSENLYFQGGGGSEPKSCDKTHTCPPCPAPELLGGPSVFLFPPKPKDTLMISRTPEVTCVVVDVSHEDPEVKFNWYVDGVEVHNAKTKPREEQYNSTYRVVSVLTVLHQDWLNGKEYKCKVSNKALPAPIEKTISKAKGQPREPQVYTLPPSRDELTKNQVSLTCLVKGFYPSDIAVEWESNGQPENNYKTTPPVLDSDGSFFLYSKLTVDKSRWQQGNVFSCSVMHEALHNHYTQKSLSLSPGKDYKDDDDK
Chain of cy-CD226 His tag (cynomolgus monkey) (chain, as listed by the source): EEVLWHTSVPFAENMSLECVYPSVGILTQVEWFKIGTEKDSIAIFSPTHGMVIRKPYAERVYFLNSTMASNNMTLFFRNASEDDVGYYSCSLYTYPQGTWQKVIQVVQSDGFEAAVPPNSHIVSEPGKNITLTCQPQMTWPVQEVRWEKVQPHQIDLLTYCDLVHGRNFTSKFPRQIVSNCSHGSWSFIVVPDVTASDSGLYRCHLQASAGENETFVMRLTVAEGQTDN

NK92.39 (antibody)
% positive [1]: 15.8% | % positive [2]: 21.5% | % positive [3]: 22% | % positive [4]: 5.4% | % positive [5]: 94.3% | % positive [6]: 4.9% | % positive [7]: 91.9% | % positive [8]: 4% | % positive [9]: 5.2% | % positive [10]: 76.7% | % positive [11]: 0.2% | % positive [12]: 4.7% | % positive [13]: 27.4% | % positive [14]: 0.1% | % positive [15]: 5.2% | % positive [16]: 2% | % positive [17]: 0.1% | % positive [18]: 5% | % positive [19]: 0.9% | % positive [20]: 4.5% | % positive [21]: 1.3% | EC50 [22]: 1.1 nM | EC50 [23]: 1.15 nM | EC50 [24]: 1.22 nM | Human NK cell IFNγ secretion (fold over background), Ab 0.08 nM [25]: 1.38 fold | Human NK cell IFNγ secretion (fold over background), Ab 0.4 nM [25]: 0.69 fold | Human NK cell IFNγ secretion (fold over background), Ab 2 nM [25]: 1.27 fold | Human NK cell IFNγ secretion (fold over background), Ab 10 nM [25]: 1.39 fold | Human NK cell IFNγ secretion (fold over background), Ab 50 nM [25]: 1.68 fold | Human NK cell IFNγ secretion (fold over background), Ab 250 nM [25]: 1.62 fold | Human NK cell IFNγ secretion, EC50 [25]: 5.53 nM | Human NK cell IFNγ secretion, maximal efficacy relative to h10G1 [25]: 61% | EC50 [26]: 0.98 nM | CD155-Fc binding (MedFI) [27]: 5040 MedFI | Kd [28]: 14.3 nM | CD155-Fc binding (MedFI) [29]: 5040 MedFI | CD155-Fc binding (MedFI) [30]: 40300 MedFI | CD155-Fc binding (MedFI) [31]: 5050 MedFI | CD155-Fc binding (MedFI) [32]: 62600 MedFI | CD155-Fc binding (MedFI) [33]: 69300 MedFI | CD155-Fc binding (MedFI) [34]: 64100 MedFI | Kd [35]: 14.2 nM | koff [35]: 0.0012 s⁻¹ | kon [35]: 84400 M⁻¹ s⁻¹ | IC50 [36]: 0.91 nM | IC50 [37]: 2.57 nM

anti-hCD226 antibody DX11
Kd [38]: 0.02 nM | Kd [39]: 6.9 nM

hu-IgG1 control antibody
% positive [4]: 0.64% | % positive [5]: 4.61% | % positive [6]: 2.36% | % positive [7]: 3.1% | % positive [9]: 1.15% | % positive [10]: 4.67% | % positive [12]: 0.59% | % positive [13]: 4.04% | % positive [15]: 0.31% | % positive [16]: 3.98% | % positive [18]: 0.57% | % positive [19]: 5.5% | % positive [20]: 0.41% | % positive [21]: 5.29% | CD155-Fc binding (MedFI) [27]: 63100 MedFI | CD155-Fc binding (MedFI) [29]: 57300 MedFI | CD155-Fc binding (MedFI) [30]: 58300 MedFI | CD155-Fc binding (MedFI) [31]: 51700 MedFI | CD155-Fc binding (MedFI) [32]: 59400 MedFI | CD155-Fc binding (MedFI) [33]: 52800 MedFI | CD155-Fc binding (MedFI) [34]: 47700 MedFI

muIgG1 control antibody
% positive [40]: 0.49% | % positive [1]: 0.27% | % positive [41]: 0.48% | % positive [2]: 0.18% | % positive [42]: 0.75% | % positive [3]: 0.42% | % positive [4]: 1.77% | % positive [5]: 2.05% | % positive [6]: 1.9% | % positive [7]: 2.34% | % positive [43]: 0.49% | % positive [8]: 0.14% | % positive [9]: 0.95% | % positive [10]: 1.42% | % positive [44]: 0.41% | % positive [11]: 0.11% | % positive [12]: 1.07% | % positive [13]: 1.5% | % positive [45]: 0.41% | % positive [14]: 0.06% | % positive [15]: 0.83% | % positive [16]: 1.09% | % positive [17]: 0.03% | % positive [18]: 1% | % positive [19]: 1.48% | % positive [20]: 0.76% | % positive [21]: 0.98% | CD155-Fc binding (MedFI) [27]: 71600 MedFI | CD155-Fc binding (MedFI) [29]: 71600 MedFI | CD155-Fc binding (MedFI) [30]: 66600 MedFI | CD155-Fc binding (MedFI) [31]: 76000 MedFI | CD155-Fc binding (MedFI) [32]: 64400 MedFI | CD155-Fc binding (MedFI) [33]: 65400 MedFI | CD155-Fc binding (MedFI) [34]: 64300 MedFI
